# Reference: publication PMC7900914 (Nature structural & molecular biology, 2017)
# Biological target: HLA-B*57:01–TW10 (human |  | HIV-1)
# Test: SPR
binder,measurement,value
"KIR3DL1*001 (similar construct, from insect cells) (receptor) HMGGQDKPFLSAWPSAVVPRGGHVTLRCHYRHRFNNFMLYKEDRIHIPIFHGRIFQESFNMSPVTTAHAGNYTCRGSHPHSPTGWSAPSNPVVIMVTGNHRKPSLLAHPGPLVKSGERVILQCWSDIMFEHFFLHKEGISKDPSRLVGQIHDGVSKANFSIGPMMLALAGTYRCYGSVTHTPYQLSAPSDPLDIVVTGPYEKPSLSAQPGPKVQAGESVTLSCSSRSSYDMYHLSREGGAHERRLPAVRKVNRTFQADFPLGPATHGGTYRCFGSFRHSPYEWSDPSDPLLVSVTGNPS",Kd,~60 µM
